Tests used:
monomeric hActRIIB [1] = molecular target: T1, monomeric hActRIIB (human, UniProt Q13705 19-134, limits assumed); assay: SPR (Biacore), 37 C, antibody captured on anti-hFc IgG chip, monomeric ActRIIB injected, KD = kd/ka
T1 construct: also called ActRIIB MONOMER; ActRIIB monomer
Procedure: (§1) Kinetic characterization of J01, K01, L01, M01, N01, and P01 antibodies binding to monomeric and dimeric hActRIIB and hActRIIA was performed using standard BIACORE®-based analysis at 37° C. In brief, antibodies were captured on anti-hFclgG Biacore chips and different concentrations of dimeric and monomeric ActRIIB or ActRIIA were injected in duplicates over the captured antibody and control surface. To obtain kinetic rate constants the data were double referenced and fit to a 1:1 interaction model using BiaEvaluation software (GE Healthcare). The equilibrium binding constant KD was determined by the ratio of binding rate constants kd/kₐ

dimeric hActRIIB [2] = molecular target: T2, dimeric hActRIIB (human, UniProt Q13705 19-134); assay: SPR (Biacore), 37 C, antibody captured on anti-hFc IgG chip, dimeric ActRIIB injected, 1:1 model
T2 construct: also called ActRIIB DIMER; ActRIIB dimer
T2 sequence (Q13705 19-134): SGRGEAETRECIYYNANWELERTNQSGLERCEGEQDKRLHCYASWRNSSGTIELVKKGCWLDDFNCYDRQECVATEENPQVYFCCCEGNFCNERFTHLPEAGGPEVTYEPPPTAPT
Procedure: as §1

dimeric hActRIIB [3] = molecular target: T2, dimeric hActRIIB; assay: SPR (Biacore), 37 C, antibody captured on anti-hFc IgG chip, dimeric ActRIIB injected, KD = kd/ka
Procedure: as §1

dimeric hActRIIA [4] = molecular target: T3, dimeric hActRIIA (human, UniProt P27037 20-135); assay: SPR (Biacore), 37 C, antibody captured on anti-hFc IgG chip, dimeric ActRIIA injected
T3 construct: also called ActRIIA DIMER; ActRIIA dimer
T3 sequence (P27037 20-135): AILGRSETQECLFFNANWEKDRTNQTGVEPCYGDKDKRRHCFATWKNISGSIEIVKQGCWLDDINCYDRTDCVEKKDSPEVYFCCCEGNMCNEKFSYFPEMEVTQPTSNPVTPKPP
Procedure: as §1

monomeric hActRIIB [5] = molecular target: T1, monomeric hActRIIB; assay: SPR (Biacore), 37 C, antibody captured on anti-hFc IgG chip, monomeric ActRIIB injected, 1:1 model
Procedure: as §1

dimeric hActRIIA [6] = molecular target: T3, dimeric hActRIIA; assay: SPR (Biacore), 37 C, antibody captured on anti-hFc IgG chip, dimeric ActRIIA injected, KD = kd/ka
Procedure: as §1

monomeric hActRIIA [7] = molecular target: T4, monomeric hActRIIA (human, UniProt P27037 20-135, limits assumed); assay: SPR (Biacore), 37 C, antibody captured on anti-hFc IgG chip, monomeric ActRIIA injected, 1:1 model
T4 construct: also called ActRIIA MONOMER; ActRIIA monomer
T4 sequence (P27037 20-135 limits assumed): as the sequence (P27037 20-135) above
Procedure: as §1

dimeric hActRIIA [8] = molecular target: T3, dimeric hActRIIA; assay: SPR (Biacore), 37 C, antibody captured on anti-hFc IgG chip, dimeric ActRIIA injected, 1:1 model
Procedure: as §1

monomeric hActRIIA [9] = molecular target: T4, monomeric hActRIIA; assay: SPR (Biacore), 37 C, antibody captured on anti-hFc IgG chip, monomeric ActRIIA injected, KD = kd/ka
Procedure: as §1

T1 sequence (Q13705 19-134 limits assumed): as the sequence (Q13705 19-134) above

B1: M01 (antibody, V domains shown)
VH: EVQLLESGGGLVQPGGSLRLSCAASGFTFGSYGMTWVRQAPGKGLEWVSVISGSGGGTYYADSVKGRFTISRDNSKNTLYLQMNSLRAEDTAVYYCAKGPRVVGMDVWGQGTTVTVSS
VL: DIQMTQSPSSVSASVGDRVTITCRASQGISSWLAWYQQKPGKAPKLLIYAASSLQSGVPSRFSGSGSGTDYTLTISSLQPEDFATYYCQQVFSYPLTFGGGTKVEIK
notes: Optimized human IgG; It was captured through its Fc on an anti-hFc IgG chip; also called M01 antibody; mAB M01
- Kd (monomeric hActRIIB [1]): 0.0755 nM
- koff (dimeric hActRIIB [2]): 3.24e-05 s⁻¹
- kon (dimeric hActRIIB [2]): 304000 M⁻¹ s⁻¹
- Kd (dimeric hActRIIB [3]): 0.107 nM
- binding result (dimeric hActRIIA [4]): no binding
- koff (monomeric hActRIIB [5]): 8.72e-05 s⁻¹
- kon (monomeric hActRIIB [5]): 1.16e+06 M⁻¹ s⁻¹

B2: P01 (antibody, V domains shown)
VH: EVQLLESGGGLVQPGGSLRLSCAASGFTFSSYAMSWVRQAPGKGLEWVSAISGSGGSTSYADSVKGRFTISRDNSKNTLYLQMNSLRAEDTAVYYCARLPQYSRPFDYWGQGTLVTVSS
VL: DIQMTQSPSSVSASVGDRVTITCRASQGISSWLAWYQQKPGKAPKLLIYAASSLQSGVPSRFSGSGSGTDFTLTISSLQPEDFATYYCQQGHSFPLTFGGGTKVEIK
notes: Naive human IgG; also called P01 antibody; mAB P01
- koff (dimeric hActRIIB [2]): 0.0145 s⁻¹
- kon (dimeric hActRIIB [2]): 388000 M⁻¹ s⁻¹
- Kd (dimeric hActRIIB [3]): 37.4 nM
- binding result (dimeric hActRIIA [4]): no binding

B3: J01 (antibody, V domains shown)
VH: QVQLVQSGAEVKKPGASVKVSCKASGYTFTSYRMHWVRQAPGQGLEWMGFIVPSGGSTSYAQKFQGRVTMTRDTSTSTVYMELSSLRSEDTAVYYCARVSRYAPEPMDVWGQGTTVTVSS
VL: DIQMTQSPSSVSASVGDRVTITCRASQGISRWLAWYQQKPGKAPKLLIYAASSLQSGVPSRFSGSGSGTDFTLTISSLQPEDFATYYCQQAFSHPWTFGGGTKVEIK
notes: also called J01 antibody; mAB J01
- Kd (dimeric hActRIIA [6]): 0.192 nM
- koff (monomeric hActRIIA [7]): 0.00259 s⁻¹
- kon (monomeric hActRIIA [7]): 828000 M⁻¹ s⁻¹
- Kd (monomeric hActRIIB [1]): 0.209 nM
- koff (dimeric hActRIIB [2]): 1.69e-05 s⁻¹
- kon (dimeric hActRIIB [2]): 452000 M⁻¹ s⁻¹
- Kd (dimeric hActRIIB [3]): 0.0374 nM
- koff (monomeric hActRIIB [5]): 0.00022 s⁻¹
- kon (monomeric hActRIIB [5]): 1.05e+06 M⁻¹ s⁻¹
- koff (dimeric hActRIIA [8]): 9.31e-05 s⁻¹
- kon (dimeric hActRIIA [8]): 484000 M⁻¹ s⁻¹
- Kd (monomeric hActRIIA [9]): 3.13 nM

B4: K01 (antibody, human IgG1, kappa, V domains shown)
VH: QLQLQESGPGLVKPSETLSLTCTVSGGSISSSSYYWGWIRQPPGKGLEWIGSISYSGSTYYNPSLKSRVTISVDTSKNQFSLKLSSVTAADTAVYYCARDSLRYGMDVWGQGTTVTVSS
VL: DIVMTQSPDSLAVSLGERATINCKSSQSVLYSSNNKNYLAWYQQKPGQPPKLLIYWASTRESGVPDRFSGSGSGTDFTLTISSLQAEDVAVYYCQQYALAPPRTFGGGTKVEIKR
notes: Naive human IgG from a yeast library; It was captured on an anti-hFc IgG chip in the SPR assay; also called K01 antibody; mAB K01
- Kd (monomeric hActRIIB [1]): 16 nM
- koff (dimeric hActRIIB [2]): 0.000683 s⁻¹
- kon (dimeric hActRIIB [2]): 104000 M⁻¹ s⁻¹
- Kd (dimeric hActRIIB [3]): 6.57 nM
- binding result (dimeric hActRIIA [4]): no binding
- koff (monomeric hActRIIB [5]): 0.00237 s⁻¹
- kon (monomeric hActRIIB [5]): 148000 M⁻¹ s⁻¹

B5: L01 (antibody, human IgG1, kappa, V domains shown)
VH: QLQLQESGPGLVKPSETLSLTCTVSGGSISSSSYYWGWIRQPPGKGLEWIGSISYSGSTYYNPSLKSRVTISVDTSKNQFSLKLSSVTAADTAVYYCARDSLRYGMDVWGQGTTVTVSS
VL: EIVMTQSPATLSVSPGERATLSCRASQSVSSNLAWYQQKPGQAPRLLIYGASTRATGIPARFSGSGSGTEFTLTISSLQSEDFAVYYCQVYNVWPRTFGGGTKVEIKR
notes: Naive human IgG; also called L01 antibody; mAB L01
- Kd (monomeric hActRIIB [1]): 19.5 nM
- koff (dimeric hActRIIB [2]): 0.000365 s⁻¹
- kon (dimeric hActRIIB [2]): 212000 M⁻¹ s⁻¹
- Kd (dimeric hActRIIB [3]): 1.72 nM
- binding result (dimeric hActRIIA [4]): no binding
- koff (monomeric hActRIIB [5]): 0.0179 s⁻¹
- kon (monomeric hActRIIB [5]): 921000 M⁻¹ s⁻¹

B6: N01 (antibody, human IgG1, kappa, V domains shown)
VH: QLQLQESGPGLVKPSETLSLTCTVSGGSISSSSYYWGWIRQPPGKGLEWIGSISYSGSTYYNPSLKSRVTISVDTSKNQFSLKLSSVTAADTAVYYCARDSLRYGMDVWGQGTTVTVSS
VL: DIQMTQSPSTLSASVGDRVTITCRASQSIGSWLAWYQQKPGKAPKLLIYKASSLESGVPSRFSGSGSGTEFTLTISSLQPDDFATYYCQVYGSYSPRTFGGGTKVEIKR
notes: also called N01 antibody; mAB N01
- Kd (monomeric hActRIIB [1]): 18.5 nM
- koff (dimeric hActRIIB [2]): 0.000335 s⁻¹
- kon (dimeric hActRIIB [2]): 182000 M⁻¹ s⁻¹
- Kd (dimeric hActRIIB [3]): 1.84 nM
- binding result (dimeric hActRIIA [4]): no binding
- koff (monomeric hActRIIB [5]): 0.00769 s⁻¹
- kon (monomeric hActRIIB [5]): 416000 M⁻¹ s⁻¹

— patent US20260132207A1 (ACCELERON PHARMA, published 2026)
